Assay results as given in PMC8615399, “Novel Structures of Type 1 Glyceraldehyde-3-phosphate Dehydrogenase from Escherichia coli Provide New Insights into the Mechanism of Generation of 1,3-Bisphosphoglyceric Acid” (Biomolecules, 2021).

Target: the molecule itself
Assay: crystal structure; hanging-drop vapor diffusion at 20 °C, protein 30 mg/mL; space group P4(1)2(1)2; complexes with NAD and phosphate, G3P or BPG; four subunits (O, P, Q, R) in each structure

Row | Protein | stoichiometry N
1 | glyceraldehyde-3-phosphate dehydrogenase type 1 from Escherichia coli, wild type (enzyme, UniProt P0A9B2 1-331, looked up, glyceraldehyde-3-phosphate dehydrogenase type 1 (EcGAPDH1), Escherichia coli; EC 1.2.1.12; also called EcGAPDH1; WT; source: purified as previously described [24]) MTIKVGINGFGRIGRIVFRAAQKRSDIEIVAINDLLDADYMAYMLKYDSTHGRFDGTVEVKDGHLIVNGKKIRVTAERDPANLKWDEVGVDVVAEATGLFLTDETARKHITAGAKKVVMTGPSKDNTPMFVKGANFDKYAGQDIVSNASCTTNCLAPLAKVINDNFGIIEGLMTTVHATTATQKTVDGPSHKDWRGGRGASQNIIPSSTGAAKAVGKVLPELNGKLTGMAFRVPTPNVSVVDLTVRLEKAATYEQIKAAVKAAAEGEMKGVLGYTEDDVVSTDFNGEVCTSVFDAKAGIALNDNFVKLVSWYDNETGYSNKVLDLIAHISK | 4
2 | EcGAPDH1 double mutant C150A+H177A (enzyme, Escherichia coli, UniProt P0A9B2 1-331, looked up, glyceraldehyde-3-phosphate dehydrogenase type 1 (EcGAPDH1), Escherichia coli; source: purified (Ni-NTA, size-exclusion chromatography)) MTIKVGINGFGRIGRIVFRAAQKRSDIEIVAINDLLDADYMAYMLKYDSTHGRFDGTVEVKDGHLIVNGKKIRVTAERDPANLKWDEVGVDVVAEATGLFLTDETARKHITAGAKKVVMTGPSKDNTPMFVKGANFDKYAGQDIVSNASATTNCLAPLAKVINDNFGIIEGLMTTVAATTATQKTVDGPSHKDWRGGRGASQNIIPSSTGAAKAVGKVLPELNGKLTGMAFRVPTPNVSVVDLTVRLEKAATYEQIKAAVKAAAEGEMKGVLGYTEDDVVSTDFNGEVCTSVFDAKAGIALNDNFVKLVSWYDNETGYSNKVLDLIAHISK | 4
3 | EcGAPDH1 mutant C150S (enzyme, Escherichia coli, UniProt P0A9B2 1-331, looked up, glyceraldehyde-3-phosphate dehydrogenase type 1 (EcGAPDH1), Escherichia coli; Made from the wild-type vector by overlap extension PCR; source: purified (Ni-NTA, size-exclusion chromatography)) MTIKVGINGFGRIGRIVFRAAQKRSDIEIVAINDLLDADYMAYMLKYDSTHGRFDGTVEVKDGHLIVNGKKIRVTAERDPANLKWDEVGVDVVAEATGLFLTDETARKHITAGAKKVVMTGPSKDNTPMFVKGANFDKYAGQDIVSNASSTTNCLAPLAKVINDNFGIIEGLMTTVHATTATQKTVDGPSHKDWRGGRGASQNIIPSSTGAAKAVGKVLPELNGKLTGMAFRVPTPNVSVVDLTVRLEKAATYEQIKAAVKAAAEGEMKGVLGYTEDDVVSTDFNGEVCTSVFDAKAGIALNDNFVKLVSWYDNETGYSNKVLDLIAHISK | 4
4 | EcGAPDH1 mutant C150A (enzyme, Escherichia coli, UniProt P0A9B2 1-331, looked up, glyceraldehyde-3-phosphate dehydrogenase type 1 (EcGAPDH1), Escherichia coli; Made from the wild-type vector by overlap extension PCR; source: purified (Ni-NTA, size-exclusion chromatography)) MTIKVGINGFGRIGRIVFRAAQKRSDIEIVAINDLLDADYMAYMLKYDSTHGRFDGTVEVKDGHLIVNGKKIRVTAERDPANLKWDEVGVDVVAEATGLFLTDETARKHITAGAKKVVMTGPSKDNTPMFVKGANFDKYAGQDIVSNASATTNCLAPLAKVINDNFGIIEGLMTTVHATTATQKTVDGPSHKDWRGGRGASQNIIPSSTGAAKAVGKVLPELNGKLTGMAFRVPTPNVSVVDLTVRLEKAATYEQIKAAVKAAAEGEMKGVLGYTEDDVVSTDFNGEVCTSVFDAKAGIALNDNFVKLVSWYDNETGYSNKVLDLIAHISK | 4
5 | EcGAPDH1 mutant H177A (enzyme, Escherichia coli, UniProt P0A9B2 1-331, looked up, glyceraldehyde-3-phosphate dehydrogenase type 1 (EcGAPDH1), Escherichia coli; Made from the wild-type vector by overlap extension PCR; source: purified (Ni-NTA, size-exclusion chromatography)) MTIKVGINGFGRIGRIVFRAAQKRSDIEIVAINDLLDADYMAYMLKYDSTHGRFDGTVEVKDGHLIVNGKKIRVTAERDPANLKWDEVGVDVVAEATGLFLTDETARKHITAGAKKVVMTGPSKDNTPMFVKGANFDKYAGQDIVSNASCTTNCLAPLAKVINDNFGIIEGLMTTVAATTATQKTVDGPSHKDWRGGRGASQNIIPSSTGAAKAVGKVLPELNGKLTGMAFRVPTPNVSVVDLTVRLEKAATYEQIKAAVKAAAEGEMKGVLGYTEDDVVSTDFNGEVCTSVFDAKAGIALNDNFVKLVSWYDNETGYSNKVLDLIAHISK | 4
